Results as given in publication PMC4542195 (mBio, 2015).

Target: the molecule itself
Assay: SEC

B1: VanTG catalytic (C-terminal cytoplasmic) domain, residues 339 to 712, as used in solution (size excl (domain or fragment)
chain: TADTDRAYLEINLNNLEHNVNTLQKAMSPKCELMAVVKAEAYGHGMYEVTTYFEPIGVFYLAVATIDEGIRLRKYGIFSEILILGYTSPSRAKELCKFELTQTLIDYRYLLLLNKQGYDIKAHIKIDTGMHRLGFSTEDKDKILAAFFLKHIKVAGIFTHLCAADSLEEKEVAFTNKPIGSFYKVLDWPKSSGLNIPKVNIQTSYGLWNIQSWNVIYQSGVALYGVLRSTNDKTKLETDLRACSFLKAKVVLIRKIKQGGSVGYSRAFTATRDSLIAILPIGYADGFPRNLSCGNSYVLIGGRQAPIVGKICMDQLAVDVTDIPNVKTGSIATLIGKDGKEEITAPMVAESAESITNELLSRMEHRLNIIRRA
- stoichiometry N: 2
